Experimental findings from paper PMC3479198 (Nucleic Acids Research, 2012) are described below.

This data set deals with the molecule itself. Put plainly: electron microscopy.

B1: Helicobacter pylori DnaA protein (natural protein, H. pylori, UniProt O26057 1-457, looked up)
chain: MDTNNNIEKEILALVKQNPKVSLIEYENYFSQLKYNPNASKSDIAFFYAPNQVLCTTITAKYGALLKEILSQNKVGMHLAHSVDVRIEVAPKIQINAQSNINYKAIKTSVKDSYTFENFVVGSCNNTVYEIAKKVAQSDTPPYNPVLFYGGTGLGKTHILNAIGNHALEKHKKVVLVTSEDFLTDFLKHLDNKTMDSFKAKYRHCDFFLLDDAQFLQGKPKLEEEFFHTFNELHANSKQIVLISDRSPKNIAGLEDRLKSRFEWGITAKVMPPDLETKLSIVKQKCQLNQITLPEEVMEYIAQHISDNIRQMEGAIIKISVNANLMNASIDLNLAKTVLEDLQKDHAEGSSLENILLAVAQSLNLKSSEIKVSSRQKNVALARKLVVYFARLYTPNPTLSLAQFLDLKDHSSISKMYSGVKKMLEEEKSPFVLSLREEIKNRLNELNDKKTAFNSSE
Regarding B1, the binding result is recorded as “binds”.
